This is an account of results in patent publication US20050143285A1.

Several values for one entry are separate records, joined by “and”; a condition that tells them apart may be missing. Equal entries are not always repeated. Where two headings read alike, the source gives them in different places.

Assay [1] deals with T1, Lymnaea stagnalis acetylcholine binding protein (AChBP) (Lymnaea stagnalis), P58154. Kind of assay: stopped-flow fluorescence; Kd calculated from k-1/k1.
The target in assay [2] is T1, Lymnaea stagnalis acetylcholine binding …. Put plainly: stopped-flow, intrinsic tryptophan fluorescence quenching of Lymnaea AChBP.
Assay [3] has the same target.
Assay [4] has the same target. The source holds these as a separate data set.
The target is the same in assay [5]. The source holds these as a separate data set.
Assay [6] addresses T2, Aplysia californica acetylcholine binding protein (AChBP) (Aplysia californica).
T2 chain: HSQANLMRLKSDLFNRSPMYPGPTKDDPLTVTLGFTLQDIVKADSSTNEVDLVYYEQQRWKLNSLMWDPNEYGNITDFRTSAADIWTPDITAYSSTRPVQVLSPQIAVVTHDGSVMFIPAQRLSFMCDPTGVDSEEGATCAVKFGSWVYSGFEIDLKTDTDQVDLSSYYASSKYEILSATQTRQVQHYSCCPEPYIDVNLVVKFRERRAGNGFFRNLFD

The target of assay [7] is T1, Lymnaea stagnalis acetylcholine binding …. Kind of assay: ratio of Kd on Lymnaea AChBP to Kd on Aplysia AChBP.
Assay [8] has the same target. Put plainly: stopped-flow spectrofluorimetry, excitation 280 nm, emission above 305 nm.
For assay [9] the target is unchanged. Put plainly: equilibrium titration, intrinsic tryptophan fluorescence of Lymnaea AChBP.

T1 sequence (P58154 20-229): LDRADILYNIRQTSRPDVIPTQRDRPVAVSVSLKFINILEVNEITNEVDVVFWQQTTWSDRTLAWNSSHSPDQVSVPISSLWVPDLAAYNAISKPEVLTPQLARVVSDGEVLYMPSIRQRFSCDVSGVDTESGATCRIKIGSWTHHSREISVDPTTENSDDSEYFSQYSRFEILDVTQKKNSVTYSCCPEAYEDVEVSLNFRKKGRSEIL

GGKPDLRPCHPPCHYIPRPKPR (modifications not checked) [Waglerin-1, P24335 3-24]: the dissociation constant (Kd) in assay [1] was 6500 nM. Further, in assay [2], the dissociation rate constant (koff) amounted to 31 s⁻¹ and the association rate constant (kon) came out at 4.8e+06 M⁻¹ s⁻¹.

B1: α-bungarotoxin, P60615 22-95 (peptide)
chain: IVCHTTATSPISAVTCPPGENLCYRKMWCDAFCSSRGKVVELGCAATCPSKKPYEEVTCCSTDKCNPHPKQRPG
modifications: not checked
Consider B1, for which the dissociation constant Kd in [3] and in assay [1] was 1.8 nM in each case. Further, the off-rate (koff) is 0.001 s⁻¹ in [4] and 0.0017 s⁻¹ in assay [2]. This molecule displayed a fold slower rate of association than epibatidine in assay [5] of 200 fold. In [5], the k2 (unimolecular step of association) was found to be 0.34 s⁻¹. Also, the fold lower affinity than for L-AChBP in assay [6] was 100 fold. The Kd Ratio L/A in assay [7] came to 0.0071. The kon in assay [8] was 900000 M⁻¹ s⁻¹; in assay [2] it was 970000 M⁻¹ s⁻¹. The percent quenching of the unliganded receptor fluorescence in assay [9] is 15% and 20%.

B2: α-Cobratoxin, P01391 1-71 (peptide)
chain: IRCFITPDITSKDCPNGHVCYTKTWCDAFCSIRGKRVDLGCAATCPTVKTGVDIQCCSTDNCNPFPTRKRP
modifications: not checked
With B2, in assay [1], the Kd was 3.2 nM. Also, in assay [2], the dissociation rate constant (koff) is 0.011 s⁻¹ and the association rate constant (kon) is 3.3e+06 M⁻¹ s⁻¹.
